Positions count from the first letter of the chain named. Names and notes keep the numbering of the source.
B1: anti-IL-6 antibody, heavy chain I51S, G66D / light chain M32L, M50D, N52S, M88Q (antibody, IgG1, V domains shown)
VH: EVQLVESGGGLVQPGGSLRLSCAASGFTFSPFAMSWVRQAPGKGLEWVAKSSPGGSWTYYSDTVTDRFTFSLDTSKSTAYLQMNSLRAEDTAVYYCARQLWGYYALDIWGQGTLVTVSS
VL: DIQLTQSPSSLSASVGDRVTITCSASISVSYLYWYQQKPGKAPKLLIYDDSSLASGVPSRFSGSGSGTDFTLTISSLQPEDFATYYCQQWSGYPYTFGQGTKVEIK
notes: Full IgG1 (Expi293); VL = variant III
B2: anti-IL-6 antibody, heavy chain S35E, G66D / light chain M32L, M50D, N52S, M88Q (antibody, IgG1, V domains shown)
VH: B1 VH with S35E, S51I
VL: B1 VL
notes: as for B1
B3: anti-IL-6 antibody, heavy chain S35L, G66D / light chain M32L, M50D, N52S, M88Q (antibody, IgG1, V domains shown)
VH: B1 VH with S35L, S51I
VL: B1 VL
notes: as for B1
B4: anti-IL-6 antibody, heavy chain S35P, G66D / light chain M32L, M50D, N52S, M88Q (antibody, IgG1, V domains shown)
VH: B1 VH with S35P, S51I
VL: B1 VL
notes: as for B1
B5: anti-IL-6 antibody, heavy chain S35D, G66D / light chain M32L, M50D, N52S, M88Q (antibody, IgG1, V domains shown)
VH: B1 VH with S35D, S51I
VL: B1 VL
notes: as for B1
B6: anti-IL-6 antibody, heavy chain S35I, G66D / light chain M32L, M50D, N52S, M88Q (antibody, IgG1, V domains shown)
VH: B1 VH with S35I, S51I
VL: B1 VL
notes: as for B1
B7: anti-IL-6 antibody, heavy chain S35F, G66D / light chain M32L, M50D, N52S, M88Q (antibody, IgG1, V domains shown)
VH: B1 VH with S35F, S51I
VL: B1 VL
notes: as for B1
B8: anti-IL-6 antibody, heavy chain S35K, G66D / light chain M32L, M50D, N52S, M88Q (antibody, IgG1, V domains shown)
VH: B1 VH with S35K, S51I
VL: B1 VL
notes: as for B1
B9: anti-IL-6 antibody, heavy chain I51V, G66D / light chain M32L, M50D, N52S, M88Q (antibody, IgG1, V domains shown)
VH: B1 VH with S51V
VL: B1 VL
notes: as for B1
B10: anti-IL-6 antibody, heavy chain I51Y, G66D / light chain M32L, M50D, N52S, M88Q (antibody, IgG1, V domains shown)
VH: B1 VH with S51Y
VL: B1 VL
notes: as for B1
B11: anti-IL-6 antibody, heavy chain I51T, G66D / light chain M32L, M50D, N52S, M88Q (antibody, IgG1, V domains shown)
VH: B1 VH with S51T
VL: B1 VL
notes: as for B1
B12: anti-IL-6 antibody, heavy chain S35G, G66D / light chain M32L, M50D, N52S, M88Q (antibody, IgG1, V domains shown)
VH: B1 VH with S35G, S51I
VL: B1 VL
notes: as for B1
B13: anti-IL-6 antibody, heavy chain S35Q, G66D / light chain M32L, M50D, N52S, M88Q (antibody, IgG1, V domains shown)
VH: B1 VH with S35Q, S51I
VL: B1 VL
notes: as for B1
B14: anti-IL-6 antibody, heavy chain S35A, G66D / light chain M32L, M50D, N52S, M88Q (antibody, IgG1, V domains shown)
VH: B1 VH with S35A, S51I
VL: B1 VL
notes: as for B1
B15: anti-IL-6 antibody, heavy chain I51W, G66D / light chain M32L, M50D, N52S, M88Q (antibody, IgG1, V domains shown)
VH: B1 VH with S51W
VL: B1 VL
notes: as for B1

Molecular target: T1, human IL-6 (human, UniProt P05231 30-212)
T1 construct: IL-6 flowed over captured antibodies
Experiment: SPR Biacore, supernatant Ab on Protein A chip, 37 C
Method: Antibodies were captured on a Protein A chip (GE) by injecting 1:20 cell supernatant dilutions at 10 μL/min for 60 seconds. […] The sensor chip was regenerated by a 60 seconds injection of 10 mM Glycine pH 1.7 at the flow rate of 50 μL/min. […] For this setup, 1 μg/mL of purified antibody was injected over a Protein A chip at 10 μL/min for 25 seconds. […] The sensor chip was regenerated by a 60 seconds injection of 10 mM Glycine pH 1.7 at flow rate of 50 μL/min. Data analysis for supernatant and purified samples were performed using BIAevaluation software (GE). All sensorgrams were double reference subtracted and fit using a 1:1 Langmuir binding model.

T1 sequence (P05231 30-212 limits assumed): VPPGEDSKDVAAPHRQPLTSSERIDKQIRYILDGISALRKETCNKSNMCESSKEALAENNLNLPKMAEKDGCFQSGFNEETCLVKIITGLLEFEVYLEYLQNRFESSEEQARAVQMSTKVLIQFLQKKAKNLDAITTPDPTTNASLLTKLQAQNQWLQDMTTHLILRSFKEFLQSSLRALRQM

Row | Kd [nM] | koff [s⁻¹] | kon [M⁻¹ s⁻¹] | Binder
1 | 0.217 | 0.000401 | 1.85e+06 | B1
2 | 0.867 | 0.00189 | 2.18e+06 | B2
3 | 2.59 | 0.00243 | 942000 | B3
4 | 27.1 | 0.00548 | 202000 | B4
5 | 0.753 | 0.00177 | 2.35e+06 | B5
6 | 1.62 | 0.00147 | 904000 | B6
7 | 3.17 | 0.00484 | 1.53e+06 | B7
8 | 2.64 | 0.00346 | 1.31e+06 | B8
9 | 1.11 | 0.00195 | 1.76e+06 | B9
10 | 4.04 | 0.0247 | 6.1e+06 | B10
11 | 0.233 | 0.000478 | 2.05e+06 | B11
12 | 0.609 | 0.000781 | 1.28e+06 | B12
13 | 0.3 | 0.000626 | 2.09e+06 | B13
14 | 0.657 | 0.00126 | 1.93e+06 | B14
15 | 4.84 | 0.00383 | 791000 | B15

From US20240209076A1 (KODIAK SCIENCES, published 2024)
